Reference: the supplement of paper PMC10899765

Columns and labels:
Details in all cases: 20 nM; 72 h
MCF10A [1] = assay: percent viability (nuclei count relative to siNT); higher = more viable cells
Description: (§1)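 After 72 h, cells were fixed and stained with Hoechst and anti-fibrillarin, and nucleoli per nucleus were counted with CellProfiler. Values are plate-adjusted percent effect for the one-nucleolus and 5+ nucleoli phenotypes, normalised to siNT (0%) and to the positive controls siNOL11 or siKIF11 (100%), as the mean of biological triplicates. Percent viability is the nuclei count relative to siNT.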

MCF10A [2] = assay: one-nucleolus phenotype percent effect (relative to siNT 0% and siNOL11 100%); higher = more cells with one nucleolus (ribosome biogenesis inhibition)
Description: as §1

MCF10A [3] = assay: 5+ nucleoli phenotype percent effect (relative to siNT 0% and siKIF11 100%); higher = more cells with five or more nucleoli
Description: as §1

| Sequence | percent viability (MCF10A [1]) | one-nucleolus phenotype percent effect (MCF10A [2]) | 5+ nucleoli phenotype percent effect (MCF10A [3]) |
| --- | --- | --- | --- |
| GUCAUACACGGCUCUCCUCUCU [hsa-miR-485-3p] | 54.4% | -9.37% | -1.94% |
| CAGGGCAGGGAAGGUGGGAGAG [hsa-miR-6879-5p] | 67.3% | -11.1% | 36.6% |
| CUGGGAGGUGGAUGUUUACUUC [hsa-miR-30b-3p] | 12.9% | 39.4% | -27.8% |
| CGGGGUUUUGAGGGCGAGAUGA [hsa-miR-193b-5p] | 46.7% | 25.4% | -32.1% |
| GAACGCGCUUCCCUAUAGAGGGU [hsa-miR-523-3p] | 119% | -18.2% | 23.3% |
| UUAUAAAGCAAUGAGACUGAUU [hsa-miR-340-5p] | 21.9% | 47.7% | -24.6% |
| GUGUGCGGAAAUGCUUCUGCUA [hsa-miR-147b] | 70.3% | -12.4% | 33.7% |
| CCCCGGGAACGUCGAGACUGGAGC [hsa-miR-1247-3p] | 17.1% | 41.2% | -15.3% |
| UUCUGCCUCUGUCCAGGUCCUU [hsa-miR-5001-3p] | 39.1% | 19.3% | -28.1% |
| CAACUAGACUGUGAGCUUCUAG [hsa-miR-708-3p] | 199% | -31% | 46.1% |
| AACAACAAAAUCACUAGUCUUCCA [hsa-miR-3529-3p] | 44.1% | 14.9% | 0.722% |
| AGGAAAUGAGGCUGGCUAGGAGC [hsa-miR-5093] | 25.8% | 23.8% | 0.0169% |
| UAAAGAGCCCUGUGGAGACA [hsa-miR-1276] | 41.4% | 24.1% | -20.8% |
| UCUGUGCUACUGGAUGAAGAGU [hsa-miR-7157-3p] | 92.3% | -22.7% | 36.4% |
| CCCUGGGCCUCUGCUCCCCAG [hsa-miR-939-3p] | 31.6% | 17.1% | -13% |
| GGGAGCCAGGAAGUAUUGAUGU [hsa-miR-505-5p] | 68.7% | 10.3% | 1.85% |
| UGACUGAGCUUCUCCCCACAG [hsa-miR-6857-3p] | 34.9% | 32.8% | -17.1% |
| GAAGGCAGCAGUGCUCCCCUGU [hsa-miR-3714] | 9.1% | 19.5% | -29.2% |
| UGGACGGAGAACUGAUAAGGGU [hsa-miR-184] | 43% | -17.7% | 80.3% |
| UUCCCUUUGUCAUCCUUCGCCU [hsa-miR-211-5p] | 75.8% | -7.23% | 49.7% |

| Sequence | percent viability (MCF10A [1]) | one-nucleolus phenotype percent effect (MCF10A [2]) | 5+ nucleoli phenotype percent effect (MCF10A [3]) |
| --- | --- | --- | --- |
| UUACAGGCGUGAACCACCGCG [hsa-miR-5095] | 12.8% | 15.8% | -7.36% |
| GUCCCUCUCCAAAUGUGUCUUG [hsa-miR-642a-5p] | 120% | -27.9% | 55.6% |
| AGGGAUCGCGGGCGGGUGGCGGCCU [hsa-miR-638] | 88% | -7.05% | 9.85% |
| AAGCCCUGUCUCCUCCCAUCU [hsa-miR-6779-3p] | 68.1% | 9.83% | -41.9% |
| UGUGCUUGCUCGUCCCGCCCGCA [hsa-miR-636] | 111% | 5.25% | -6.7% |
| UGAGGUAGUAGAUUGUAUAGUU [hsa-let-7f-5p] | 123% | -20.6% | 25.3% |
| UGCUCAGGUUGCACAGCUGGGA [hsa-miR-3934-3p] | 52.8% | 9.77% | -20.7% |
| UGCUUCCUUUCAGAGGGU [hsa-miR-516b-3p] | 78.4% | 8.29% | -29.9% |
| UGAAACUGGAGCGCCUGGAGGA [hsa-miR-4738-3p] | 28.6% | 26.9% | -20.8% |
| UAAAACCCACAAUUAUGUUUGU [hsa-miR-548as-3p] | 149% | 25.3% | -6.8% |
| GACUAUAGAACUUUCCCCCUCA [hsa-miR-625-3p] | 104% | -5.42% | 19.1% |
| AUCCUUGCUAUCUGGGUGCUA [hsa-miR-502-5p] | 40.4% | 8.98% | -11.6% |
| UCAUAUUGCUUCUUUCU [hsa-miR-1279] | 187% | -26.6% | 35.8% |
| UGUCACUCGGCUCGGCCCACUAC [hsa-miR-668] | 60.6% | -1.34% | -8.26% |
| CUACCCCCCAUCCCCCUGUAG [hsa-miR-6798-3p] | 72.5% | -5.24% | -13.9% |
| UGAGGGAGUUGGGUGUAUA [hsa-miR-6129] | 24.3% | 18.8% | -7.69% |
| GUUUCACCAUGUUGGUCAGGC [hsa-miR-5096] | 49% | 21.9% | -17.6% |
| CAGGACUUGACGGCUGCAACU [hsa-miR-8083] | 71% | -1.33% | 22.5% |
| UGAGGGCUCCAGGUGACGGUGG [hsa-miR-4721] | 22% | 27.2% | -20.6% |
| AUAUACCUGUUCGGUCUCUUUA [hsa-miR-3144-3p] | 30% | -10.5% | -12.6% |

| Sequence | percent viability (MCF10A [1]) | one-nucleolus phenotype percent effect (MCF10A [2]) | 5+ nucleoli phenotype percent effect (MCF10A [3]) |
| --- | --- | --- | --- |
| GUGGUUAUCCCUGUCCUGUUCG [hsa-miR-487b-5p] | 37.4% | -1.37% | 17.4% |
| UCCACUCUCCUGGCCCCCAG [hsa-miR-6777-3p] | 51% | -16.2% | 14.3% |
| UCCAGUGCCCUCCUCUCC [hsa-miR-1825] | 70.3% | -8.72% | -2.13% |
| UUGGGAGGGAAGACAGCUGGAGA [hsa-miR-6780a-5p] | 13.4% | 55% | -30.2% |
| UAGAGUCUGGCUGAUAUGGUUU [hsa-miR-5007-5p] | 49.3% | 14% | -8% |
| UAUAGAGAGCAGGAAGAUUAAUGU [hsa-miR-3976] | 78.3% | -15.3% | 31.2% |
| GAUGAUGAUGGCAGCAAAUUCUGAAA [hsa-miR-1272] | 76.8% | 8.72% | 4.28% |
| UGUUGUCAUGUUUUUUCCCUAG [hsa-miR-6755-3p] | 26% | -6.42% | 34.6% |
| UUGUACAUGGUAGGCUUUCAUU [hsa-miR-493-5p] | 81.7% | 3.68% | -9.79% |
| UCUGAAUUGUAAGAGUUGUUA [hsa-miR-4680-3p] | 114% | -21.5% | 14.3% |
| CUCCUCCACAGCCCCUGCUCAU [hsa-miR-6792-3p] | 56.4% | -4.72% | -21.5% |
| AAAGUGCUUCUCUUUGGUGGGU [hsa-miR-520d-3p] | 74.3% | -16.1% | 58.4% |
| AAGUAGUUGGUUUGUAUGAGAUGGUU [hsa-miR-1244] | 44.6% | 12.3% | -0.297% |
| CAUUACAGCACAGCCAUUCU [hsa-miR-6504-3p] | 47.5% | 2.85% | -25.6% |
| ACUCUAGCUGCCAAAGGCGCU [hsa-miR-1251] | 80.4% | -4.32% | 11.2% |
| GUGUCUGGGCGGACAGCUGC [hsa-miR-1231] | 39.3% | 62.4% | -15.6% |
| GCAGUAGUGUAGAGAUUGGUUU [hsa-miR-3129-5p] | 40.7% | -15% | 12.6% |
| CACCCGUAGAACCGACCUUGCG [hsa-miR-99b-5p] | 62.9% | 21.8% | -9.05% |
| UGCAACGAACCUGAGCCACUGA [hsa-miR-891a] | 57.7% | -1.85% | 1.67% |
